The record followed here is article PMC2933323 (Nature structural & molecular biology, 2010).

For experiment [1], the target named is Rb expressed from CMV-Rb in Saos-2 cells (UniProt P06400). The experiment can be described thus: co-IP.
Experiment [2] deals with endogenous Rb of CV-1 cells (African green monkey (endogenous in CV-1)). The experiment can be described thus: co-IP.
For experiment [3], the target named is catalytic subunit of protein phosphatase 1 (PP1c), α isoform (human, UniProt P62136 1-300). The experiment can be described thus: ITC. (Isothermal titration calorimetry measures the heat released or taken up as one component is titrated into another.)
The target in experiment [4] is catalytic subunit of protein phosphatase 1 (PP1c), α isoform (human) (UniProt P62136).
Sequence of catalytic subunit of protein phosphatase 1 (PP1c), α isoform (human) (P62136 1-300): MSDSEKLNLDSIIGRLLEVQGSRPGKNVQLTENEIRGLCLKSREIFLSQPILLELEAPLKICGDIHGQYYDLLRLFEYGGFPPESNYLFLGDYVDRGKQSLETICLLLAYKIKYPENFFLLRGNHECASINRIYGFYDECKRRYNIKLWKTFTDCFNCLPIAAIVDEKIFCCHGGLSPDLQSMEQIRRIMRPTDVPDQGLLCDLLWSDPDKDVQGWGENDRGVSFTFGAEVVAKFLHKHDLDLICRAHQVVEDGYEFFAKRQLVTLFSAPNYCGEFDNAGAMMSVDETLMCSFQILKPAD

The molecule “PP1 in transfected Saos-2 cells (exogenous myc-PP1c together with endogenous PP1) (from UniProt P62136 1-330) (enzyme)” gave a PP1 co-precipitated, percent of the immunoprecipitated Rb in experiment [1] of 30%.

In turn, endogenous PP1 of CV-1 cells (enzyme) showed a PP1 co-precipitated, percent of the immunoprecipitated Rb in experiment [2] of 2%.

Regarding KPLKKLRFDIEGS [Rb^870–882 peptide], binding in experiment [3] was put at a Kd of 1200 nM.

B1: phosRb^771–928 (domain or fragment)
chain: YASTRPPTLSPIPHIPRSPYKFPSSPLRIPGGNIYISPLKSPYKISEGLPTPTKMTPRSRILVSIGESFGTSEKFQKINQMVCNSDRVLKRSAEGSNPPKPLKKLRFDIEGSDEADGSKHLPGESKFQQKLAEMTSTRTRMQKQKMNDSMDTSNKEEK
Consider B1, for which the apparent KM of dephosphorylation by PP1c (steady-state analysis) in experiment [4] worked out at 6 µM.

B2: phosRb^771–874 (domain or fragment)
chain: YASTRPPTLSPIPHIPRSPYKFPSSPLRIPGGNIYISPLKSPYKISEGLPTPTKMTPRSRILVSIGESFGTSEKFQKINQMVCNSDRVLKRSAEGSNPPKPLKK
For B2, in experiment [4], the apparent KM of dephosphorylation by PP1c (steady-state analysis) stood at 30 µM.
